B1: Fab 2A10 (antibody, V domains shown)
VH: QVQLVESGGGLIQPGGSLRLSCAASEFIVSSNYMSWVRQAPGKGLEWVSLLYSGGTTYYADSVKGRFTISRDNSKNTLFLQMNSLRAEDTAMYYCARDRGPWLHDYWGQGTLVTVS
VL: DIVMTQSPSSLSASVGDRVTITCQASQDINKYCNWYQQKPGKAPKLLIYDASNLETGVPSRFSGSGSGTDFTFTINSLQPEDIATYYCQQYDNLPPTFGGGTKVEIK
B2: 1C3 antigen-binding fragment (Fab) (Fab, V domains shown)
VH: QVQLLESGGGLVQPGRSLRLSCAASGFTFDDYAMHWVRQPPGKGLEWVSGSSWNSGSVVYADSVKGRFTISRDSAKNSLHLQMNSLRVEDTALYYCAKAVDPTRGSYSPDYGFDIWGQGTMVTVS
VL: not shown

Target: SARS-CoV-2 D614G spike (SARS-CoV-2, UniProt P0DTC2 14-1208)
Assay: SPR

| Binder | Kd |
| --- | --- |
| B1 | 0.161 nM |
| B2 | 0.043 nM |
